Literature values in paper PMC11301627.

Molecular target: Asp133 (UniProt position 133, SNFHFDTTAAH)
Assay: kinetics
Settings: wild-type enzyme, steady-state reaction with L-Trp

Substance: Tryptophan indole-lyase (TIL, tryptophanase) (Proteus vulgaris)
- pKa: 5.3
